To fix the notation:
T1: papain (UniProt P00784 134-345)
T1 construct: source: bought: Sigma
T1 sequence (looked up): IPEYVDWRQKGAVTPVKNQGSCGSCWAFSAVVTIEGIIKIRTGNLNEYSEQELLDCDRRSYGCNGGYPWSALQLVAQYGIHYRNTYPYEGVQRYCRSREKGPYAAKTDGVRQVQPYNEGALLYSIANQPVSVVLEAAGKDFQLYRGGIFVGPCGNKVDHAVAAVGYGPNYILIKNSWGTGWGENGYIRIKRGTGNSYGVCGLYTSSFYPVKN

B1: chagasin (recombinant His-tagged wild type) (natural protein)
chain: MSHKVTKAHNGATLTVAVGELVEIQLPSNPTTGFAWYFEGGTKESPNESMFTVENKYFPPDSKLLGAGGTEHFHVTVKAAGTHAVNLTYMRPWTGPSHDSERFTVYLKAN
notes: also called WT; wild type chagasin; source: E. coli M15/pRep4, purified (Ni metal chelate column, HQ ion exchange)
B2: chagasin T31A/T32A double mutant (natural protein)
chain: MSHKVTKAHNGATLTVAVGELVEIQLPSNPAAGFAWYFEGGTKESPNESMFTVENKYFPPDSKLLGAGGTEHFHVTVKAAGTHAVNLTYMRPWTGPSHDSERFTVYLKAN
notes: pQE30 construct as m1; also called pGL1258; source: E. coli M15/pRep4, purified (Ni metal chelate column, HQ ion exchange)
B3: chagasin Y89F (natural protein)
chain: MSHKVTKAHNGATLTVAVGELVEIQLPSNPTTGFAWYFEGGTKESPNESMFTVENKYFPPDSKLLGAGGTEHFHVTVKAAGTHAVNLTFMRPWTGPSHDSERFTVYLKAN
notes: pQE30 construct as m1; also called pGL1119; source: E. coli M15/pRep4, purified (Ni metal chelate column, HQ ion exchange)
B4: chagasin Y89S (natural protein)
chain: MSHKVTKAHNGATLTVAVGELVEIQLPSNPTTGFAWYFEGGTKESPNESMFTVENKYFPPDSKLLGAGGTEHFHVTVKAAGTHAVNLTSMRPWTGPSHDSERFTVYLKAN
notes: pQE30 construct as m1; also called pGL1120; source: E. coli M15/pRep4, purified (Ni metal chelate column, HQ ion exchange)
B5: chagasin T32Y (natural protein)
chain: MSHKVTKAHNGATLTVAVGELVEIQLPSNPTYGFAWYFEGGTKESPNESMFTVENKYFPPDSKLLGAGGTEHFHVTVKAAGTHAVNLTYMRPWTGPSHDSERFTVYLKAN
notes: pQE30 construct as m1; also called pGL1198; source: E. coli M15/pRep4, purified (Ni metal chelate column, HQ ion exchange)
B6: chagasin T32A (natural protein)
chain: MSHKVTKAHNGATLTVAVGELVEIQLPSNPTAGFAWYFEGGTKESPNESMFTVENKYFPPDSKLLGAGGTEHFHVTVKAAGTHAVNLTYMRPWTGPSHDSERFTVYLKAN
notes: pQE30 construct as m1; also called pGL1211; source: E. coli M15/pRep4, purified (Ni metal chelate column, HQ ion exchange)
B7: chagasin T32V (natural protein)
chain: MSHKVTKAHNGATLTVAVGELVEIQLPSNPTVGFAWYFEGGTKESPNESMFTVENKYFPPDSKLLGAGGTEHFHVTVKAAGTHAVNLTYMRPWTGPSHDSERFTVYLKAN
notes: pQE30 construct as m1; also called pGL1196; source: E. coli M15/pRep4, purified (Ni metal chelate column, HQ ion exchange)
B8: chagasin T31A (natural protein)
chain: MSHKVTKAHNGATLTVAVGELVEIQLPSNPATGFAWYFEGGTKESPNESMFTVENKYFPPDSKLLGAGGTEHFHVTVKAAGTHAVNLTYMRPWTGPSHDSERFTVYLKAN
notes: pQE30 construct as m1; also called pGL1209; source: E. coli M15/pRep4, purified (Ni metal chelate column, HQ ion exchange)
B9: chagasin T32S (natural protein)
chain: MSHKVTKAHNGATLTVAVGELVEIQLPSNPTSGFAWYFEGGTKESPNESMFTVENKYFPPDSKLLGAGGTEHFHVTVKAAGTHAVNLTYMRPWTGPSHDSERFTVYLKAN
notes: pQE30 construct as m1; also called pGL1195; source: E. coli M15/pRep4, purified (Ni metal chelate column, HQ ion exchange)
B10: chagasin T31S (natural protein)
chain: MSHKVTKAHNGATLTVAVGELVEIQLPSNPSTGFAWYFEGGTKESPNESMFTVENKYFPPDSKLLGAGGTEHFHVTVKAAGTHAVNLTYMRPWTGPSHDSERFTVYLKAN
notes: pQE30 construct as m1; also called pGL1299; source: E. coli M15/pRep4, purified (Ni metal chelate column, HQ ion exchange)
B11: chagasin W93A (natural protein)
chain: MSHKVTKAHNGATLTVAVGELVEIQLPSNPTTGFAWYFEGGTKESPNESMFTVENKYFPPDSKLLGAGGTEHFHVTVKAAGTHAVNLTYMRPATGPSHDSERFTVYLKAN
notes: pQE30 construct as m1; also called pGL1199; source: E. coli M15/pRep4, purified (Ni metal chelate column, HQ ion exchange)
B12: chagasin P30A (natural protein)
chain: MSHKVTKAHNGATLTVAVGELVEIQLPSNATTGFAWYFEGGTKESPNESMFTVENKYFPPDSKLLGAGGTEHFHVTVKAAGTHAVNLTYMRPWTGPSHDSERFTVYLKAN
notes: pQE30 construct as m1; also called pGL1194; source: E. coli M15/pRep4, purified (Ni metal chelate column, HQ ion exchange)
B13: chagasin T31Y (natural protein)
chain: MSHKVTKAHNGATLTVAVGELVEIQLPSNPYTGFAWYFEGGTKESPNESMFTVENKYFPPDSKLLGAGGTEHFHVTVKAAGTHAVNLTYMRPWTGPSHDSERFTVYLKAN
notes: pQE30 construct as m1; also called pGL1210; source: E. coli M15/pRep4, purified (Ni metal chelate column, HQ ion exchange)
B14: chagasin T31V (natural protein)
chain: MSHKVTKAHNGATLTVAVGELVEIQLPSNPVTGFAWYFEGGTKESPNESMFTVENKYFPPDSKLLGAGGTEHFHVTVKAAGTHAVNLTYMRPWTGPSHDSERFTVYLKAN
notes: pQE30 construct as m1; also called pGL1298; source: E. coli M15/pRep4, purified (Ni metal chelate column, HQ ion exchange)
B15: chagasin T32E (natural protein)
chain: MSHKVTKAHNGATLTVAVGELVEIQLPSNPTEGFAWYFEGGTKESPNESMFTVENKYFPPDSKLLGAGGTEHFHVTVKAAGTHAVNLTYMRPWTGPSHDSERFTVYLKAN
notes: pQE30 construct as m1; also called pGL1197; source: E. coli M15/pRep4, purified (Ni metal chelate column, HQ ion exchange)
B16: chagasin ΔT31–T32 (devoid of residues T31 and T32) (natural protein)
chain: MSHKVTKAHNGATLTVAVGELVEIQLPSNPGFAWYFEGGTKESPNESMFTVENKYFPPDSKLLGAGGTEHFHVTVKAAGTHAVNLTYMRPWTGPSHDSERFTVYLKAN
notes: source: E. coli M15/pRep4, purified (Ni metal chelate column, HQ ion exchange)

The first test concerns the target T1, papain. The experiment in a line: enzyme inhibition kinetics (Ki for tight-binding inhibitors); peptidase incubated with different chagasin concentrations for 15 min at room temperature, residual hydrolysis of 5 μM Z-Phe-Arg-MCA; Ki from Kiapp with KM 1.5, 2.5 and 60 μM for cruzipain, cathepsin L and papain; methods: RB buffer (50 mM Na2PO4, pH 6.5, 200 mM NaCl, 5 mM EDTA, 2.5 mM DTT), 25 °C; footnote of Table 2: 50 mM Na2HPO4, 100 mM NaCl, 5 mM …. As to conditions: both partners purified.
On to B1, for which the Ki is 0.005 ± 0.0007 nM.

Consider B2, for which the Ki came out at 0.027 ± 0.0015 nM.

As for B3, the binding result was “binds”.

In turn, B4 gave a Ki of 0.316 ± 0.017 nM.

A further test concerns the target human cathepsin L (human). The experiment in a line: enzyme inhibition kinetics (Ki for tight-binding inhibitors); peptidase incubated with different chagasin concentrations for 15 min at room temperature, residual hydrolysis of 5 μM Z-Phe-Arg-MCA; Ki from Kiapp with KM 1.5, 2.5 and 60 μM for cruzipain, cathepsin L and papain; methods: RB buffer (50 mM Na2PO4, pH 6.5, 200 mM NaCl, 5 mM EDTA, 2.5 mM DTT), 25 °C; footnote of Table 2: 50 mM Na2HPO4, 100 mM NaCl, 5 mM EDTA, pH 6.5, 5% DMSO, 2.5 mM DTT, 28 °C.
Conditions: not given
The molecule “chagasin T31A/T32A double mutant (from UniProt Q966X9 1-110) (natural protein)” displayed a Ki of 0.0018 nM.

As to “chagasin T32Y (from UniProt Q966X9 1-110) (natural protein)”, the Ki turned out to be 0.0027 nM.

“chagasin T32A (from UniProt Q966X9 1-110) (natural protein)” showed a Ki of 0.014 nM.

“chagasin T31Y (from UniProt Q966X9 1-110) (natural protein)” displayed a Ki of 0.0068 nM.

In the case of “chagasin T31S (from UniProt Q966X9 1-110) (natural protein)”, the Ki was 0.0049 nM.

With “chagasin ΔT31–T32 (devoid of residues T31 and T32) (from UniProt Q966X9 1-110) (natural protein)”, the Ki was found to be 2.2 nM.

Consider “chagasin T31A (from UniProt Q966X9 1-110) (natural protein)”, for which the Ki came to 0.0039 nM.

With “chagasin T32V (from UniProt Q966X9 1-110) (natural protein)”, the Ki was 0.02 nM.

Molecule “chagasin T31V (from UniProt Q966X9 1-110) (natural protein)” displayed a Ki of 0.0097 nM.

In the case of “chagasin P30A (from UniProt Q966X9 1-110) (natural protein)”, the Ki was 0.045 nM.

“chagasin T32S (from UniProt Q966X9 1-110) (natural protein)” came in with a Ki of 0.032 nM.

“chagasin W93A (from UniProt Q966X9 1-110) (natural protein)” returned a Ki of 0.825 nM.

Take B1: the Ki was 0.0073 nM.

The target of another test is T2, cruzipain (Trypanosoma cruzi, UniProt P25779 123-467).
T2 construct: also called T. cruzi CP cruzipain; major cysteine peptidase of T. cruzi
The experiment in a line: enzyme inhibition kinetics (Ki for tight-binding inhibitors); peptidase incubated with different chagasin concentrations for 15 min at room temperature, residual hydrolysis of 5 μM Z-Phe-Arg-MCA; Ki from Kiapp with KM 1.5, 2.5 and 60 μM for cruzipain, cathepsin L and papain; methods: RB buffer (50 mM Na2PO4, pH 6.5, 200 mM NaCl, 5 mM EDTA, 2.5 mM DTT), 25 °C; footnote of Table 2: 50 mM Na2HPO4, 100 mM NaCl, 5 mM …. Particulars: both partners purified.
Take B1: the Ki stood at 0.0076 nM.

B5 registered a Ki of 0.016 nM.

On to B6, for which the Ki worked out at 0.016 nM.

On to B7, for which the Ki was determined as 0.193 nM.

Take B8: the Ki was found to be 0.317 nM.

On to B9, for which the Ki is 0.02 nM.

In the case of B10, the Ki was 0.011 nM.

In the case of B2, the Ki turned out to be 1.06 nM.

As to B11, the Ki stood at 0.031 nM.

The molecule B12 showed a Ki of 0.02 nM.

In turn, B13 returned a Ki of 0.747 nM.

Molecule B14 had a Ki of 0.07 nM.

In turn, B3 displayed a Ki of 0.02 nM.

Molecule B4 showed a Ki of 0.025 nM.

The molecule B15 had a Ki of 0.011 nM.

B16 displayed a Ki of 5.87 nM.

(Values after publication PMC2607524, “The role of conserved residues of chagasin in the inhibition of cysteine peptidases” (Febs Letters, 2008).)
